Measurements reported in patent US20250313646A1 (AUGMENT BIOLOGICS, published 2025).

Columns and labels:
[1] = biological target: T1, full-length, biotinylated, human CD20 (Acro Biosystems) (human, UniProt P11836 1-297, biotinylated (site not stated)); assay: BLI (Octet RED96e), biotinylated CD20 on biosensor, antibody at 100 nM
T1 construct: mature; No construct limits or tags are stated for the bought reagent; also called CD20 antigen
T1 sequence (looked up): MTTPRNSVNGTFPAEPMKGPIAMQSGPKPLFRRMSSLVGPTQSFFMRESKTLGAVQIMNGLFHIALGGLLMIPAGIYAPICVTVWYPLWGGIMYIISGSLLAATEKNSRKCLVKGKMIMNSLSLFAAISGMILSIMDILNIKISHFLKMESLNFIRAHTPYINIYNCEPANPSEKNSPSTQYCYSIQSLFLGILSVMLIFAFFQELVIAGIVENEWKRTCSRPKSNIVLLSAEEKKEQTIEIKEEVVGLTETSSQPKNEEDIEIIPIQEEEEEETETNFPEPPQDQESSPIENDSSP

[2] = biological target: T1, full-length, biotinylated, human CD20 …; assay: BLI (Octet RED96e), biotinylated CD20 on biosensor, antibody at 25 nM
[3] = biological target: T1, full-length, biotinylated, human CD20 …; assay: BLI (Octet RED96e), biotinylated CD20 on biosensor, antibody at 50 nM

B1: wildtype Rituximab (antibody)
chain 1: not shown
chain 2: QIVLSQSPAILSASPGEKVTMTCRASSSVSYIHWFQQKPGSSPKPWIYATSNLASGVPVRFSGSGSGTSYSLTISRVEAEDAATYYCQQWTSNPPTFGGGTKLEIKRTVAAPSVFIFPPSDEQLKSGTASVVCLLNNFYPREAKVQWKVDNALQSGNSQESVTEQDSKDSTYSLSSTLTLSKADYEKHKVYACEVTHQGLSSPVTKSFNRGEC
Work on B1 yielded a Kd [1] of 0.169 nM, a Kd [2] of 0.171 nM and a Kd [3] of 0.169 nM.
